The source of these data is patent publication US9695460B2, “Method of analyzing L-tryptophan in biological samples, and kit used therein” (Toyama Prefecture, priority 2011, dated 2017).

For data set [1], the system named is VioA, L-tryptophan oxidase derived from Chromobacterium violaceum, SEQ ID NO: 1. As to conditions: reported in Balibar and Walsh (2006) Biochemistry 45, 15444-15457; cited from earlier work.
In data set [2] the test system is L-amino acid oxidase derived from Coprinus sp. As to conditions: Japanese Un-examined patent publication No. 2001-069974, read-out: Km value for L-tryptophan; cited from earlier work.
Substrate in data set [3]: N[C@@H](Cc1c[nH]c2ccccc12)C(=O)O
The data set can be described thus: Km value of L-tryptophan oxidase StaO for L-tryptophan (peroxidase-coupled, absorbance at 505 nm). The format is biochemical, Streptomyces sp. TA-A0724. As to conditions: other: StaO, 20 mM tris-hydrochloric acid buffer pH 8.0, 30° C., 0-500 μM L-tryptophan, 0.5 mU/mL enzyme. The source says:
StaO is an enzyme that has the amino acid sequence given in SEQ ID NO: 2 in the Sequence Listing, that has oxidase activity of acting on L-tryptophan in the presence of oxygen and water to produce hydrogen peroxide and ammonia, that has oxidase activity on L-phenylalanine falling within a range of 0 to 3% of the oxidase activity on L-tryptophan, and that has no oxidase activity on the protein-constituting amino acids other than L-tryptophan and L-phenylalanine. StaO can be derived from Streptomyces sp. TA-A0724. The gene encoding StaO was discovered in the biosynthesis gene cluster of staurosporine, an antibiotic produced by the above bacterium (Onaka, H., Taniguchi, S., Igarashi, Y., and Furumai, T. (2002) J Antibiot 55, 1063-1071). This gene has no significant homology with the VioA gene, nor is there any example of biological analysis of the genetic product. Thus, the properties of the genetic product were unknown. […]
The supernatant of each solution of the ruptured expression strains was loaded onto an Ni Sepharose column made by GE Healthcare, washed with 20 mM Tris-HCl and 50 mM imidazole (pH 8.0), and then eluted with a solution of 20 mM Tris-HCl and 500 mM imidazole (pH 8.0) to purify and recover the target enzyme. The base sequences of these enzymes were determined, and are shown as SEQ ID NOS: 3 and 4. […]

The nature of data set [4]: Substrate specificity for amino acids of L-tryptophan oxidase (peroxidase-coupled, absorbance at 505 nm). The format is biochemical. How it is done:
A reaction solution of 20 mM tris-hydrochloric acid buffer (pH 8.0), 5 mM L-tryptophan, 1 mM phenol, 1 mM 4-aminoantipyrine, 15 U/mL horseradish-derived peroxidase, and some quantity of L-tryptophan oxidase enzyme solution was prepared and the change in absorbance at 505 nm was measured at 30° C. The mol absorbance coefficient of quinoneimine dye was considered to be 6.4 mM^−1·cm^−1. Activity generating 1 μmol of hydrogen peroxide per minute was defined as 1 U. The detection limit of this method was 0.5%.
Reaction solutions each containing 20 mM of tris-hydrochloric acid buffer (pH 8.0), 1 mM of phenol, 1 mM of 4-aminoantipyrine, 15 U/mL of horseradish-derived peroxidase, 0.2 to 20 mU/mL of L-tryptophan oxidase, and 0.5 mM of an amino acid (one of the 20 protein-constituting amino acids) were prepared and the change in absorbance at 505 nm was measured at 30° C. The relative activity for each amino acid was calculated from the measurement values obtained, yielding the results given in Table 1. The detection limit of this method was 0.5%.

A short description of data set [5]: Dependence on reaction temperature. The data set is classed as biochemical. How it is done:
StaO and VioA activity measurement was conducted at reaction temperatures of 20, 30, 40, 50, and 60° C. An activity measurement reaction solution of 20 mM of tris-hydrochloric acid buffer (pH 8.0), 1 mM of L-tryptophan, 1 mM of phenol, 1 mM of 4-aminoantipyrine, 15 U/mL of horseradish-derived peroxidase, and L-tryptophan oxidase enzyme solution was employed. Everything in the above reaction solution but the peroxidase and L-tryptophan oxidase enzyme solution was admixed, and 10 minutes of preincubation was conducted at various temperatures. While maintaining the temperature of the reaction solution, the peroxidase and the L-tryptophan oxidase enzyme solution were added and the reaction was begun. The change in absorbance at 505 nm was rapidly measured. […] The effect of deactivation at high temperature became marked in StaO at 60° C. and in VioA at 50° C. and above, making it difficult to accurately measure the activity.

The nature of data set [6]: Stability on storage at 4° C. at various glycerol concentrations. The data set is classed as physicochemical. As for the experimental part: Glycerol was added to final concentrations of 0 to 50% (v/v) to StaO and VioA purified enzyme solutions. The enzymatic solutions were stored at 4° C., sampled over time, and the activity was measured. The change over time in the residual activity of StaO and VioA stored in the presence of various glycerol concentrations are given in FIGS. 7 and 8.

Data set [7] in a line: Thermal stability (residual activity after 1 hour heat treatment). The data set is classed as physicochemical. As to conditions: activity prior to heat treatment as 100, StaO in 20% glycerol, VioA in 10% glycerol. How it is done:
The activity was measured after heat treating StaO enzyme solutions containing 20% glycerol and VioA enzyme solutions containing 10% glycerol for 1 hour at 30, 40, 50, 60, and 70° C. […] At heat treatments of 50° C. and above, the residual activity dropped below the detection limit.

Where [8] appears, read: 0.5 mM amino acid, pH 8.0, 30° C., No activity = at or below detection limit 0.5%.
Setting [9] is: activity at 20° C. as 100, 1 mM L-tryptophan, pH 8.0.
Where [10] appears, read: activity at 20° C. as 100, * = estimated value when greatly impacted by thermal deactivation.

Turning to `N[C@@H](Cc1c[nH]c2ccccc12)C(=O)O` [L-tryptophan], the Km is 30 µM in data set [1] and 650 µM in data set [2].

B1: StaO, L-tryptophan oxidase derived from Streptomyces sp. TA-A0724, SEQ ID NO: 2 (Streptomyces sp. TP-A0274) (protein)
chain: MTAPLQDSDGPDDAIGGPKQVTVIGAGIAGLVTAYELERLGHHVQIIEGSDDIGGRIHTHRFSGAGGPGPFAEMGAMRIPAGHRLTMHYIAELGLQNQVREFRTLFSDDAAYLPSSAGYLRVREAHDTLVDEFATGLPSAHYRQDTLLFGAWLDASIRAIAPRQFYDGLHNDIGVELLNLVDDIDLTPYRCGTARNRIDLHALFADHPRVRASCPPRLERFLDDVLDETSSSIVRLKDGMDELPRRLASRIRGKISLGQEVTGIDVHDDTVTLTVRQGLRTVTRTCDYVVCTIPFTVLRTLRLTGFDQDKLDIVHETKYWPATKIAFHCREPFWEKDGISGGASFTGGHVRQTYYPPAEGDPALGAVLLASYTIGPDAEALARMDEAERDALVAKELSVMHPELRRPGMVLAVAGRDWGARRWSRGAATVRWGQEAALREAERRECARPQKGLFFAGEHCSSKPAWIEGAIESAIDAAHEIEWYEPRASRVFAASRLSRSDRSA
notes: peroxidase-coupled assay
As for B1, in data set [3], the Km worked out at 19 μM μM.

B2: StaO: L-tryptophan oxidase with the amino acid sequence of SEQ ID NO: 2, derived from Streptomyces sp. TA-A0724, His-tagged, expressed in E. coli (protein)
chain: MTAPLQDSDGPDDAIGGPKQVTVIGAGIAGLVTAYELERLGHHVQIIEGSDDIGGRIHTHRFSGAGGPGPFAEMGAMRIPAGHRLTMHYIAELGLQNQVREFRTLFSDDAAYLPSSAGYLRVREAHDTLVDEFATGLPSAHYRQDTLLFGAWLDASIRAIAPRQFYDGLHNDIGVELLNLVDDIDLTPYRCGTARNRIDLHALFADHPRVRASCPPRLERFLDDVLDETSSSIVRLKDGMDELPRRLASRIRGKISLGQEVTGIDVHDDTVTLTVRQGLRTVTRTCDYVVCTIPFTVLRTLRLTGFDQDKLDIVHETKYWPATKIAFHCREPFWEKDGISGGASFTGGHVRQTYYPPAEGDPALGAVLLASYTIGPDAEALARMDEAERDALVAKELSVMHPELRRPGMVLAVAGRDWGARRWSRGAATVRWGQEAALREAERRECARPQKGLFFAGEHCSSKPAWIEGAIESAIDAAHEIEWYEPRASRVFAASRLSRSDRSA
modifications: His tag; Streptomyces sp. TP-A0274
notes: TA-A0724, His-tagged, expressed in E. coli
Turning to B2, the “Relative activity, L-tryptophan” value in data set [4] (0.5 mM amino acid, pH 8.0, 30° C., L-tryptophan = 100%) is given as 100%. Besides, in data set [4] (setting [8]), the “Relative activity, L-tyrosine” value is listed as “No activity” and the “Relative activity, other amino acids (17 listed in the footnote)” value is on record as “No activity”. For the same molecule, the “Reactivity to amino acids other than L-tryptophan” value in data set [4] (relative activity below the detection limit (0.5%)) is “did not exhibit reactivity”. In data set [5] (setting [9]), the “Relative activity at reaction temperature 20° C.” value is on record as 100, the “Relative activity at reaction temperature 30° C.” value is 156 and the “Relative activity at reaction temperature 40° C.” value was 268. Further, in data set [5] (setting [10]), the “Relative activity at reaction temperature 50° C.” value is 427 and the “Relative activity at reaction temperature 60° C.” value is 480*. Also, the “Reaction temperature at which the effect of deactivation became marked” value in data set [5] (activity measurement at 20-60° C.) was 60 °C. Moreover, the “Stability of enzyme solution on storage” value in data set [6] (30% or more of glycerol added) is given as “high stability”. The “Stability of enzyme solution on storage” value in data set [6] (buffer only, no glycerol) is “unstable”. Besides, in data set [7], the “Relative (residual) activity following heat treatment at 30° C.” value is 73, the “Relative (residual) activity following heat treatment at 40° C.” value stood at 1 and the “Relative (residual) activity following heat treatment at ≧50° C.” value is less than 1.
